Reference: the Immune Epitope Database (IEDB)

Legend:
[1] = target: HLA-C*14:02; assay: IEDB peptide-MHC binding, purified MHC/direct/fluorescence; filed as Kd, often an IC50 or EC50 that approximates it; ≥ and ≤ were set here for values at or beyond the usual limits of such assays
[2] = target: HLA-A*24:03; assay: IEDB peptide-MHC binding, purified MHC/competitive/fluorescence; filed as Kd, often an IC50 or EC50 that approximates it; ≥ and ≤ were set here for values at or beyond the usual limits of such assays; settings: source organism: Escherichia coli str. K-12 substr. MG1655
[3] = target: HLA-A*24:02; assay: as above
[4] = target: HLA-C*05:01; assay: IEDB peptide-MHC binding, purified MHC/direct/fluorescence; filed as Kd, often an IC50 or EC50 that approximates it; ≥ and ≤ were set here for values at or beyond the usual limits of such assays; settings: source organism: Variola virus
[5] = target: HLA-B*07:02; assay: IEDB peptide-MHC binding, purified MHC/competitive/radioactivity; filed as Kd, often an IC50 or EC50 that approximates it; ≥ and ≤ were set here for values at or beyond the usual limits of such assays; settings: source organism: Vaccinia virus WR
[6] = target: HLA-B*35:01; assay: as above; settings: source organism: Vaccinia virus WR
[7] = target: HLA-B*51:01; assay: as above; settings: source organism: Vaccinia virus WR
[8] = target: HLA-B*53:01; assay: as above; settings: source organism: Vaccinia virus WR
[9] = target: HLA-B*54:01; assay: as above; settings: source organism: Vaccinia virus WR
[10] = target: HLA-A*02:01; assay: IEDB peptide-MHC binding, purified MHC/direct/fluorescence; filed as Kd, often an IC50 or EC50 that approximates it; ≥ and ≤ were set here for values at or beyond the usual limits of such assays
[11] = target: HLA-A*02:03; assay: as above
[12] = target: HLA-A*02:11; assay: as above
[13] = target: HLA-A*02:12; assay: as above
[14] = target: HLA-A*02:16; assay: as above
[15] = target: HLA-A*02:19; assay: as above
[16] = target: HLA-A*03:01; assay: as above
[17] = target: HLA-A*23:01; assay: as above; settings: source organism: Toxoplasma gondii
[18] = target: HLA-A*24:03; assay: as above
[19] = target: HLA-A*26:01; assay: as above
[20] = target: HLA-A*29:02; assay: as above
[21] = target: HLA-A*68:02; assay: as above; settings: source organism: Toxoplasma gondii
[22] = target: HLA-A*69:01; assay: as above
[23] = target: HLA-B*15:01; assay: as above
[24] = target: HLA-B*15:17; assay: as above
[25] = target: HLA-B*18:01; assay: as above
[26] = target: HLA-B*27:03; assay: as above
[27] = target: HLA-B*39:01; assay: as above
[28] = target: HLA-B*46:01; assay: as above
[29] = target: HLA-B*51:01; assay: as above
[30] = target: HLA-B*57:01; assay: as above
[31] = target: HLA-C*07:02; assay: as above; settings: source organism: Cryptosporidium parvum Iowa II
[32] = target: HLA-C*15:02; assay: as above
[33] = target: HLA-C*06:02; assay: as above; settings: source organism: Cryptosporidium parvum
[34] = target: HLA-C*08:02; assay: as above; settings: source organism: Vaccinia virus WR
[35] = target: HLA-C*12:03; assay: as above; settings: source organism: Vaccinia virus WR
[36] = target: HLA-B*51:01; assay: IEDB peptide-MHC binding, purified MHC/competitive/fluorescence; filed as Kd, often an IC50 or EC50 that approximates it; ≥ and ≤ were set here for values at or beyond the usual limits of such assays; settings: source organism: Vaccinia virus WR
[37] = target: HLA-C*03:03; assay: IEDB peptide-MHC binding, purified MHC/direct/fluorescence; filed as Kd, often an IC50 or EC50 that approximates it; ≥ and ≤ were set here for values at or beyond the usual limits of such assays; settings: source organism: Campylobacter jejuni subsp. jejuni 81-176
[38] = source organism: Toxoplasma gondii
[39] = source organism: Staphylococcus aureus subsp. aureus N315
[40] = source organism: Cryptosporidium parvum
[41] = source organism: Toxoplasma gondii RH
[42] = source organism: Camelpox virus M-96
[43] = source organism: Campylobacter jejuni subsp. jejuni 81116

AYPELACAV gave a Kd ([1]; source organism: Escherichia coli str. K-12 substr. MG1655) of no more than 0.001 µM and a Kd [2] of 0.406 µM.

For KWMMAMRYPI, the Kd ([3]; source organism: Influenza A virus (A/chicken/Fujian/25/00(H9N2))) was 0.0032 µM.

Sequence LPMIIGEPI has a Kd [4] of no less than 20 µM, a Kd [5] of 0.000255 µM and a Kd [6] of 0.0645 µM. It also gave a Kd [7] of 0.00117 µM, a Kd [8] of 0.0056 µM and a Kd [9] of 0.00157 µM.

Work on LPPVVPPLI yielded a Kd [10, 38] of no less than 20 µM, a Kd [11, 38] of no less than 20 µM and a Kd [12, 38] of no less than 20 µM. It also gave a Kd [13, 38] of no less than 20 µM, a Kd [14, 38] of no less than 20 µM and a Kd [15, 38] of no less than 20 µM. It also gave a Kd [16, 38] of no less than 20 µM, a Kd [17] of no less than 20 µM and a Kd [18, 38] of no less than 20 µM. The Kd [19, 38] was no less than 20 µM, the Kd [20, 38] was no less than 20 µM and the Kd [21] was no less than 20 µM. The Kd [22, 38] was no less than 20 µM, the Kd [23, 38] was no less than 20 µM and the Kd [24, 38] was no less than 20 µM. It also gave a Kd [25, 38] of no less than 20 µM, a Kd [26, 38] of no less than 20 µM and a Kd [27, 38] of no less than 20 µM. It also gave a Kd [28, 38] of no less than 20 µM, a Kd [29, 38] of 0.201 µM and a Kd [30, 38] of no less than 20 µM.

Sequence NYKWWWFSF has a Kd [31] of 0.181 µM and a Kd ([3]; source organism: Cryptosporidium parvum Iowa II) of 0.0023 µM.

Sequence RTQAVIYAF has a Kd ([18]; source organism: Bacillus anthracis) of 0.0013 µM, a Kd [1, 39] of 0.133 µM and a Kd [32, 39] of 1.4 µM.

Work on RYMYIYLFI yielded a Kd [18, 40] of 0.004 µM, a Kd [33] of no less than 20 µM and a Kd [3, 40] of 0.0036 µM.

In the case of RYSKKFKPEI, the Kd ([3]; source organism: Influenza A virus (A/Swine/Indiana/9K035/99 (H1N2))) is reported as 0.033 µM.

THADAHTQL showed a Kd [10, 41] of no less than 20 µM, a Kd [11, 41] of no less than 20 µM and a Kd [12, 41] of no less than 20 µM. It also gave a Kd [13, 41] of no less than 20 µM, a Kd [14, 41] of no less than 20 µM and a Kd [15, 41] of no less than 20 µM. It also gave a Kd [16, 41] of no less than 20 µM, a Kd [18, 41] of no less than 20 µM and a Kd [19, 41] of no less than 20 µM. For the same sequence, the Kd [20, 41] was no less than 20 µM, the Kd [22, 41] was no less than 20 µM and the Kd [23, 41] was no less than 20 µM. It also gave a Kd [24, 41] of no less than 20 µM, a Kd [25, 41] of no less than 20 µM and a Kd [26, 41] of no less than 20 µM. For the same sequence, the Kd [28, 41] was no less than 20 µM, the Kd [29, 41] was no less than 20 µM and the Kd [30, 41] was no less than 20 µM.

YLYETYHLI was tested, and the Kd [10, 42] was 0.002 µM, the Kd [22, 42] was 0.0038 µM and the Kd [34] was no less than 20 µM. For the same sequence, the Kd [35] was 0.155 µM and the Kd [36] was 4 µM.

YTASVVAAY was tested, and the Kd ([1]; source organism: Homo sapiens) was 0.098 µM and the Kd ([32]; source organism: Homo sapiens) was no less than 20 µM.

YTNYPFLFF gave a Kd [10, 43] of no less than 20 µM, a Kd [11, 43] of no less than 20 µM and a Kd [13, 43] of no less than 20 µM. It also gave a Kd [14, 43] of no less than 20 µM, a Kd [15, 43] of no less than 20 µM and a Kd [16, 43] of no less than 20 µM. The Kd [26, 43] was no less than 20 µM, the Kd [27, 43] was no less than 20 µM and the Kd [29, 43] was no less than 20 µM. The Kd [37] was 0.159 µM and the Kd ([32]; source organism: Campylobacter jejuni subsp. jejuni 81-176) was 0.025 µM.
